According to US20220106400A1 (Bristol-Myers Squibb, published 2022):

T1: human CD73 on human tumor cell lines (human, UniProt P21589 27-549)
T1 sequence (looked up): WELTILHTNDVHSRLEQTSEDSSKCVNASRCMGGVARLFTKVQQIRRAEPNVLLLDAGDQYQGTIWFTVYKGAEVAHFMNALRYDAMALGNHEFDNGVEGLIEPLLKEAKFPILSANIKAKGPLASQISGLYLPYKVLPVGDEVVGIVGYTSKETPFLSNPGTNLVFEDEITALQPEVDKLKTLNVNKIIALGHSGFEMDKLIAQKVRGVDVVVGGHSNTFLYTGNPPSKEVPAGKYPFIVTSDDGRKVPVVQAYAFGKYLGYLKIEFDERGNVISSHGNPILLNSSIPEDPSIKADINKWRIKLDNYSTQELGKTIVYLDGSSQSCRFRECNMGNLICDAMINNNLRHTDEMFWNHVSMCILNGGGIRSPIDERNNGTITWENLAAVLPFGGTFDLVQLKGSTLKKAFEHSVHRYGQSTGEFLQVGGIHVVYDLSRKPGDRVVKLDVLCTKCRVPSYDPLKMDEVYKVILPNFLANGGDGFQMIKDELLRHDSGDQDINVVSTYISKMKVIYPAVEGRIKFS

B1: CD73.4-IgG2-C219S-IgG1.1f (antibody)
heavy: QVQLVESGGGVVQPGRSLRLSCAASGFTFSNYGMHWVRQAPGKGLEWVAVILYDGSNKYYPDSVKGRFTISRDNSKNTLYLQMNSLRAEDTAVYYCARGGSSWYPDSFDIWGQGTMVTVSSASTKGPSVFPLAPCSRSTSESTAALGCLVKDYFPEPVTVSWNSGALTSGVHTFPAVLQSSGLYSLSSVVTVPSSNFGTQTYTCNVDHKPSNTKVDKTVERKSCVECPPCPAPPVAGPSVFLFPPKPKDTLMISRTPEVTCVVVDVSHEDPEVKFNWYVDGVEVHNAKTKPREEQYNSTYRVVSVLTVLHQDWLNGKEYKCKVSNKALPSSIEKTISKAKGQPREPQVYTLPPSREEMTKNQVSLTCLVKGFYPSDIAVEWESNGQPENNYKTTPPVLDSDGSFFLYSKLTVDKSRWQQGNVFSCSVMHEALHNHYTQKSLSLSPGK
light: not shown
notes: also called CD73.4-IgG2CS-IgG1.1f; CD73.4-IgG2.3G1.1f-KH
B2: CD73.4-IgG2.5G1-KH (antibody)
heavy: QVQLVESGGGVVQPGRSLRLSCAASGFTFSNYGMHWVRQAPGKGLEWVAVILYDGSNKYYPDSVKGRFTISRDNSKNTLYLQMNSLRAEDTAVYYCARGGSSWYPDSFDIWGQGTMVTVSSASTKGPSVFPLAPSSRSTSESTAALGCLVKDYFPEPVTVSWNSGALTSGVHTFPAVLQSSGLYSLSSVVTVPSSNFGTQTYTCNVDHKPSNTKVDKTVERKCCVECPPCPAPPVAGPSVFLFPPKPKDTLMISRTPEVTCVVVDVSHEDPEVKFNWYVDGVEVHNAKTKPREEQYNSTYRVVSVLTVLHQDWLNGKEYKCKVSNKALPAPIEKTISKAKGQPREPQVYTLPPSREEMTKNQVSLTCLVKGFYPSDIAVEWESNGQPENNYKTTPPVLDSDGSFFLYSKLTVDKSRWQQGNVFSCSVMHEALHNHYTQKSLSLSPGK
light: not shown
notes: also called mAb-CD73.4-IgG2.5G1-KH; CD73.4-Vh-hHC-IgG2.5G1-KH
B3: CD73.4-IgG2.3G1-KH (antibody)
heavy: QVQLVESGGGVVQPGRSLRLSCAASGFTFSNYGMHWVRQAPGKGLEWVAVILYDGSNKYYPDSVKGRFTISRDNSKNTLYLQMNSLRAEDTAVYYCARGGSSWYPDSFDIWGQGTMVTVSSASTKGPSVFPLAPCSRSTSESTAALGCLVKDYFPEPVTVSWNSGALTSGVHTFPAVLQSSGLYSLSSVVTVPSSNFGTQTYTCNVDHKPSNTKVDKTVERKSCVECPPCPAPPVAGPSVFLFPPKPKDTLMISRTPEVTCVVVDVSHEDPEVKFNWYVDGVEVHNAKTKPREEQYNSTYRVVSVLTVLHQDWLNGKEYKCKVSNKALPAPIEKTISKAKGQPREPQVYTLPPSREEMTKNQVSLTCLVKGFYPSDIAVEWESNGQPENNYKTTPPVLDSDGSFFLYSKLTVDKSRWQQGNVFSCSVMHEALHNHYTQKSLSLSPGK
light: not shown
notes: also called mAb-CD73.4-IgG2.3G1-KH; CD73.4-Vh-hHC-IgG2.3G1-KH
B4: CD73.4-IgG2.5G1.1f-KH (antibody)
heavy: QVQLVESGGGVVQPGRSLRLSCAASGFTFSNYGMHWVRQAPGKGLEWVAVILYDGSNKYYPDSVKGRFTISRDNSKNTLYLQMNSLRAEDTAVYYCARGGSSWYPDSFDIWGQGTMVTVSSASTKGPSVFPLAPSSRSTSESTAALGCLVKDYFPEPVTVSWNSGALTSGVHTFPAVLQSSGLYSLSSVVTVPSSNFGTQTYTCNVDHKPSNTKVDKTVERKCCVECPPCPAPPVAGPSVFLFPPKPKDTLMISRTPEVTCVVVDVSHEDPEVKFNWYVDGVEVHNAKTKPREEQYNSTYRVVSVLTVLHQDWLNGKEYKCKVSNKALPSSIEKTISKAKGQPREPQVYTLPPSREEMTKNQVSLTCLVKGFYPSDIAVEWESNGQPENNYKTTPPVLDSDGSFFLYSKLTVDKSRWQQGNVFSCSVMHEALHNHYTQKSLSLSPGK
light: not shown
notes: also called mAb-CD73.4-IgG2.5G1.1f-KH; CD73.4-Vh-hHC-IgG2.5G1.1f-KH
B5: CD73.4-IgG2.5 (antibody)
heavy: QVQLVESGGGVVQPGRSLRLSCAASGFTFSNYGMHWVRQAPGKGLEWVAVILYDGSNKYYPDSVKGRFTISRDNSKNTLYLQMNSLRAEDTAVYYCARGGSSWYPDSFDIWGQGTMVTVSSASTKGPSVFPLAPSSRSTSESTAALGCLVKDYFPEPVTVSWNSGALTSGVHTFPAVLQSSGLYSLSSVVTVPSSNFGTQTYTCNVDHKPSNTKVDKTVERKCCVECPPCPAPPVAGPSVFLFPPKPKDTLMISRTPEVTCVVVDVSHEDPEVQFNWYVDGVEVHNAKTKPREEQFNSTFRVVSVLTVVHQDWLNGKEYKCKVSNKGLPAPIEKTISKTKGQPREPQVYTLPPSREEMTKNQVSLTCLVKGFYPSDIAVEWESNGQPENNYKTTPPMLDSDGSFFLYSKLTVDKSRWQQGNVFSCSVMHEALHNHYTQKSLSLSPGK
light: not shown
notes: also called mAb-CD73.4-IgG2.5; CD73.4-Vh-hHC-IgG2.5
B6: CD73.4-IgG2.3-plusGGG (antibody)
heavy: QVQLVESGGGVVQPGRSLRLSCAASGFTFSNYGMHWVRQAPGKGLEWVAVILYDGSNKYYPDSVKGRFTISRDNSKNTLYLQMNSLRAEDTAVYYCARGGSSWYPDSFDIWGQGTMVTVSSASTKGPSVFPLAPCSRSTSESTAALGCLVKDYFPEPVTVSWNSGALTSGVHTFPAVLQSSGLYSLSSVVTVPSSNFGTQTYTCNVDHKPSNTKVDKTVERKSCVEGGGCPPCPAPPVAGPSVFLFPPKPKDTLMISRTPEVTCVVVDVSHEDPEVQFNWYVDGVEVHNAKTKPREEQFNSTFRVVSVLTVVHQDWLNGKEYKCKVSNKGLPAPIEKTISKTKGQPREPQVYTLPPSREEMTKNQVSLTCLVKGFYPSDIAVEWESNGQPENNYKTTPPMLDSDGSFFLYSKLTVDKSRWQQGNVFSCSVMHEALHNHYTQKSLSLSPGK
light: not shown
notes: also called mAb-CD73.4-IgG2.3-plusGGG; CD73.4-Vh-hHC-IgG2.3-plusGGG
B7: CD73.4-IgG2.5-plusTHT (antibody)
heavy: QVQLVESGGGVVQPGRSLRLSCAASGFTFSNYGMHWVRQAPGKGLEWVAVILYDGSNKYYPDSVKGRFTISRDNSKNTLYLQMNSLRAEDTAVYYCARGGSSWYPDSFDIWGQGTMVTVSSASTKGPSVFPLAPSSRSTSESTAALGCLVKDYFPEPVTVSWNSGALTSGVHTFPAVLQSSGLYSLSSVVTVPSSNFGTQTYTCNVDHKPSNTKVDKTVERKCCVETHTCPPCPAPPVAGPSVFLFPPKPKDTLMISRTPEVTCVVVDVSHEDPEVQFNWYVDGVEVHNAKTKPREEQFNSTFRVVSVLTVVHQDWLNGKEYKCKVSNKGLPAPIEKTISKTKGQPREPQVYTLPPSREEMTKNQVSLTCLVKGFYPSDIAVEWESNGQPENNYKTTPPMLDSDGSFFLYSKLTVDKSRWQQGNVFSCSVMHEALHNHYTQKSLSLSPGK
light: not shown
notes: also called mAb-CD73.4-IgG2.5plusTHT/LC; CD73.4-Vh-hHC-IgG2.5plusTHT/LC

These binders were tested against T1, human CD73 on human tumor cell lines (assay: cell-based or functional assay).

Binder | T1/2 internalization, Calu6 [min] | T1/2 internalization, NCI-H292 [min] | T1/2 internalization, NCI-H1437 [min] | T1/2 internalization, NCI-H1437 (no wash) [min] | T1/2 internalization, SNU-C1 [min] | T1/2 internalization, SNU-C1 (no wash) [min] | Ymax internalization, Calu6 [%] | Ymax internalization, NCI-H292 [%]
B1 | 34 | 15.8 | 19 | 20.5 | 29.7 | 61.5 | 76.8 | 77.6

Target: T1, human CD73 on human tumor cell lines
Test: cell-based or functional assay
Remark: another data set of the same source

Binder | T1/2 internalization, Calu6 [min] | T1/2 internalization, NCI-H292 [min] | Ymax internalization, Calu6 [%] | Ymax internalization, NCI-H292 [%]
B2 | 17 | 15.4 | 76 | 90.8
B3 | 23.8 | 16.8 | 81.6 | 91.6
B4 | 21.2 | 18 | 79.6 | 90.9
B1 | 21 | 16.6 | 81 | 90.3
B5 | 20.9 | 18.3 | 79 | 89.6
B6 | 20.1 | 16.3 | 81.7 | 91.6
B7 | 17.2 | 15.4 | 80.2 | 89.6
